# The supplement of paper PMC10567573
# B1: GAGE1 (parent)
# chain: RPRRYVQPPEMIGPMRPEQFSDEV
# B2: POMT2 (parent)
# chain: LRGGGQVLLGWTLHYFPFFLMGRV
# Variants of: B1
# Assay: protein stability index of a GFP-peptide fusion (GPS, HEK-293T) (PSI 1-6); higher = more stable
# Settings: c terminus: a fixed tail appended
# 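Also: lentivirally expressed fusions sorted by FACS into six bins by GFP to DsRed ratio, PSI derived from sequencing read proportions per bin multiplied by bin number.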
row,Variant,protein stability index
1,RPRRYVQPPEMIGPMRPEQFIDEV [S21I],2.9
2,RPRRYVQPPEMIGPMRPEQFRDEV [S21R],4.11
3,RPRRYVQPPEMIGPMRPEQFADEV [S21A],3.69
4,RPRRYVQPPEMIGPMRPEQFCDEV [S21C],4.15
5,RPRRYVQPPEMIGPMRPEQFYDEV [S21Y],3.63
6,RPRRYVQPPEMIGPMRPEQFNDEV [S21N],3.87
7,RPRRYVQPPEMIGPMRPEQFLDEV [S21L],3.48
8,RPRRYVQPPEMIGPMRPEQFDDEV [S21D],3.98
9,RPRRYVQPPEMIGPMRPEQFKDEV [S21K],4
10,RPRRYVQPPEMIGPMRPEQFWDEV [S21W],3.01
11,RPRRYVQPPEMIGPMRPEQFHDEV [S21H],3.55
12,RPRRYVQPPEMIGPMRPEQFPDEV [S21P],3.99
13,RPRRYVQPPEMIGPMRPEQFEDEV [S21E],3.73
14,RPRRYVQPPEMIGPMRPEQFTDEV [S21T],3.71
15,RPRRYVQPPEMIGPMRPEQFQDEV [S21Q],3.79
16,RPRRYVQPPEMIGPMRPEQFGDEV [S21G],4.17
17,RPRRYVQPPEMIGPMRPEQFMDEV [S21M],3.44
18,RPRRYVQPPEMIGPMRPEQFFDEV [S21F],2.97
19,RPRRYVQPPEMIGPMRPEQFVDEV [S21V],3.64
20,RPRRYVQPPEMIGPMRPEQTSDEV [F20T],4.62
21,RPRRYVQPPEMIGPMRPEQRSDEV [F20R],4.64
22,RPRRYVQPPEMIGPMRPEQWSDEV [F20W],3.94

row,Variant,protein stability index
1,RPRRYVQPPEMIGPMRPEQQSDEV [F20Q],4.84
2,RPRRYVQPPEMIGPMRPEQNSDEV [F20N],4.8
3,RPRRYVQPPEMIGPMRPEQPSDEV [F20P],4.72
4,RPRRYVQPPEMIGPMRPEQMSDEV [F20M],4.08
5,RPRRYVQPPEMIGPMRPEQYSDEV [F20Y],3.82
6,RPRRYVQPPEMIGPMRPEQVSDEV [F20V],4.71
7,RPRRYVQPPEMIGPMRPEQSSDEV [F20S],4.42
8,RPRRYVQPPEMIGPMRPEQFSDKV [E23K],3.65
9,RPRRYVQPPEMIGPMRPEQFSDDV [E23D],3.77
10,RPRRYVQPPEMIGPMRPEQFSDVV [E23V],3.77
11,RPRRYVQPPEMIGPMRPEQFSDCV [E23C],3.58
12,RPRRYVQPPEMIGPMRPEQFSDLV [E23L],3.08
13,RPRRYVQPPEMIGPMRPEQFSDQV [E23Q],3.63
14,RPRRYVQPPEMIGPMRPEQFSDYV [E23Y],2.76
15,RPRRYVQPPEMIGPMRPEQFSDGV [E23G],3.46
16,RPRRYVQPPEMIGPMRPEQFSDMV [E23M],2.85
17,RPRRYVQPPEMIGPMRPEQFSDNV [E23N],3.42
18,RPRRYVQPPEMIGPMRPEQFSDAV [E23A],3.59
19,RPRRYVQPPEMIGPMRPEQFSDTV [E23T],3.75
20,RPRRYVQPPEMIGPMRPEQFSDFV [E23F],2.98
21,RPRRYVQPPEMIGPMRPEQFSDIV [E23I],2.92
22,RPRRYVQPPEMIGPMRPEQFSDPV [E23P],3.63

row,Variant,protein stability index
1,RPRRYVQPPEMIGPMRPEQFSDSV [E23S],3.68
2,RPRRYVQPPEMIGPMRPEQFSDHV [E23H],3.6
3,RPRRYVQPPEMIGPMRPEQFSDRV [E23R],3.85
4,RPRRYVQPPEMIGPMRPEQFSDWV [E23W],2.95
5,RPRRYVQPPEMIGPMRPEQFSAEV [D22A],3.87
6,RPRRYVQPPEMIGPMRPEQFSLEV [D22L],2.6
7,RPRRYVQPPEMIGPMRPEQFSVEV [D22V],2.9
8,RPRRYVQPPEMIGPMRPEQFSWEV [D22W],2.53
9,RPRRYVQPPEMIGPMRPEQFSSEV [D22S],3.95
10,RPRRYVQPPEMIGPMRPEQFSMEV [D22M],3.06
11,RPRRYVQPPEMIGPMRPEQFSEEV [D22E],3.83
12,RPRRYVQPPEMIGPMRPEQFSNEV [D22N],3.23
13,RPRRYVQPPEMIGPMRPEQFSHEV [D22H],3.29
14,RPRRYVQPPEMIGPMRPEQFSIEV [D22I],1.97
15,RPRRYVQPPEMIGPMRPEQFSFEV [D22F],2.16
16,RPRRYVQPPEMIGPMRPEQFSGEV [D22G],3.62
17,RPRRYVQPPEMIGPMRPEQFSCEV [D22C],3.14
18,RPRRYVQPPEMIGPMRPEQFSKEV [D22K],3.88
19,RPRRYVQPPEMIGPMRPEQFSPEV [D22P],3.95
20,RPRRYVQPPEMIGPMRPEQFSYEV [D22Y],2.77
21,RPRRYVQPPEMIGPMRPEQFSREV [D22R],3.5
22,RPRRYVQPPEMIGPMRPEQFSTEV [D22T],3.76

row,Variant,protein stability index
1,RPRRYVQPPEMIGPMRPEQFSQEV [D22Q],3.11
2,RPRRYVQPPEMIGPMRPEQFSDER [V24R],4.47
3,RPRRYVQPPEMIGPMRPEQFSDEN [V24N],4.2
4,RPRRYVQPPEMIGPMRPEQFSDEG [V24G],3.58
5,RPRRYVQPPEMIGPMRPEQFSDEP [V24P],4.06
6,RPRRYVQPPEMIGPMRPEQFSDEL [V24L],3.74
7,RPRRYVQPPEMIGPMRPEQFSDED [V24D],4.09
8,RPRRYVQPPEMIGPMRPEQFSDEW [V24W],4.01
9,RPRRYVQPPEMIGPMRPEQFSDEK [V24K],4.5
10,RPRRYVQPPEMIGPMRPEQFSDEQ [V24Q],4.18
11,RPRRYVQPPEMIGPMRPEQFSDEA [V24A],4.52
12,RPRRYVQPPEMIGPMRPEQFSDEI [V24I],3.51
13,RPRRYVQPPEMIGPMRPEQFSDEE [V24E],4.17
14,RPRRYVQPPEMIGPMRPEQFSDEC [V24C],3.35
15,RPRRYVQPPEMIGPMRPEQFSDEM [V24M],3.74
16,RPRRYVQPPEMIGPMRPEQFSDEF [V24F],2.74
17,RPRRYVQPPEMIGPMRPEQFSDEY [V24Y],3.94
18,RPRRYVQPPEMIGPMRPEQFSDET [V24T],4.17
19,RPRRYVQPPEMIGPMRPEQFSDES [V24S],4.21
20,RPRRYVQPPEMIGPMRPEQFSDEH [V24H],4.46

# Variants of: B2
# Assay: as above
# Settings: c terminus: a fixed tail appended
row,Variant,protein stability index
1,LDGGGQVLLGWTLHYFPFFLMGRV [R2D],3.49
2,DRGGGQVLLGWTLHYFPFFLMGRV [L1D],2.89
3,SRGGGQVLLGWTLHYFPFFLMGRV [L1S],2.23
4,RRGGGQVLLGWTLHYFPFFLMGRV [L1R],3.02
5,GRGGGQVLLGWTLHYFPFFLMGRV [L1G],2.56
6,ERGGGQVLLGWTLHYFPFFLMGRV [L1E],2.74
7,FRGGGQVLLGWTLHYFPFFLMGRV [L1F],3.06
8,ARGGGQVLLGWTLHYFPFFLMGRV [L1A],3.17
